Tests used:
SpCBM70 = molecular target: T1, SpCBM70 (Streptococcus pneumoniae, UniProt Q54873); test: isothermal titration calorimetry; type: binding; details: 25 °C, 25 mM Tris-HCl pH 7.5, 50 mM NaCl; too weak to quantify
T1 construct: gene SP_0314; N-terminal CBM70 module, Lys53-Ser212, N-terminal His6 tag with thrombin site (pET28), recombinant in E. coli; ITC construct; 4D0Q is the C-terminally His6-tagged Asn54-Ser212 form, unliganded
From the text: isothermal titration calorimetry on SpCBM70

[1] = molecular target: the molecule itself; test: small angle X-ray scattering; 50 mM Tris-HCl pH 8.0, 500 mM NaCl, 288 K, Hyl 1.0-10.8 mg/ml; monomer/dimer mixture modelled with SASREF7MX (P2 symmetry, 30 runs each at 1.0-2.7 mg/ml) and OLIGOMER; Kd = [monomer]^2/[dimer], dimer to monomers
[2] = molecular target: the molecule itself; test: dynamic light scattering; 25 °C, triplicate, 15 acquisitions of 5 s, after size exclusion chromatography and 0.22 µm filter; Hyl 1.0-10.8 mg/ml, PL8 1.4-10.9 mg/ml; associated fraction from expected radii of a globular monomer and dimer; Kd = [monomer]^2/[dimer], dimer to monomers

Hyaluronan 4-mer was tested, and the Ka (SpCBM70) was > 5 × 10^3.

B1: Streptococcus pneumoniae hyaluronate lyase, construct with the CBM, middle (linker) and PL8 domains (residues Lys53-Lys1006) (enzyme)
chain: KNLVENGDFGQTEDGSSPWTGSKAQGWSAWVDQKNSADASTRVIEAKDGAITISSHEKLRAALHRMVPIEAKKKYKLRFKIKTDNKIGIAKVRIIEESGKDKRLWNSATTSGTKDWQTIEADYSPTLDVDKIKLELFYETGTGTVSFKDIELVEVADQLSEDSQTDKQLEEKIDLPIGKKHVFSLADYTYKVENPDVASVKNGILEPLKEGTTNVIVSKDGKEVKKIPLKILASVKDAYTDRLDDWNGIIAGNQYYDSKNEQMAKLNQELEGKVADSLSSISSQADRTYLWEKFSNYKTSANLTATYRKLEEMAKQVTNPSSRYYQDETVVRTVRDSMEWMHKHVYNSEKSIVGNWWDYEIGTPRAINNTLSLMKEYFSDEEIKKYTDVIEKFVPDPEHFRKTTDNPFKALGGNLVDMGRVKVIAGLLRKDDQEISSTIRSIEQVFKLVDQGEGFYQDGSYIDHTNVAYTGAYGNVLIDGLSQLLPVIQKTKNPIDKDKMQTMYHWIDKSFAPLLVNGELMDMSRGRSISRANSEGHVAAVEVLRGIHRIADMSEGETKQCLQSLVKTIVQSDSYYDVFKNLKTYKDISLMQSLLSDAGVASVPRPSYLSAFNKMDKTAMYNAEKGFGFGLSLFSSRTLNYEHMNKENKRGWYTSDGMFYLYNGDLSHYSDGYWPTVNPYKMPGTTETDAKRADSDTGKVLPSAFVGTSKLDDANATATMDFTNWNQTLTAHKSWFMLKDKIAFLGSNIQNTSTDTAATTIDQRKLESGNPYKVYVNDKEASLTEQEKDYPETQSVFLESFDSKKNIGYFFFKKSSISMSKALQKGAWKDINEGQSDKEVENEFLTISQAHKQNRDSYGYMLIPNVDRATFNQMIKELESSLIENNETLQSVYDAKQGVWGIVKYDDSVSTISNQFQVLKRGVYTIRKEGDEYKIAYYNPETQESAPDQEVFKK
notes: Hyaluronate lyase (Hyl) of Streptococcus pneumoniae, a 1066-amino acid protein; residues Lys53-Lys1006, amplified from genomic DNA; lacks the N-terminal secretion signal peptide and the C-terminal cell-wall anchoring motif; the results section prints 53-1007; The His6 tag is joined by a thrombin cleavage site; Theoretical mass printed as 110.6 kDa; In solution a monomer/dimer mixture; also called …
For B1, the Kd [1] was roughly 43 µM, the “stoichiometry N” value [1] was 2 and the Kd [2] was roughly 37 µM.

B2: PL8 catalytic domain of Streptococcus pneumoniae hyaluronate lyase (residues Lys288-Gln1009) (domain or fragment)
chain: KDAYTDRLDDWNGIIAGNQYYDSKNEQMAKLNQELEGKVADSLSSISSQADRTYLWEKFSNYKTSANLTATYRKLEEMAKQVTNPSSRYYQDETVVRTVRDSMEWMHKHVYNSEKSIVGNWWDYEIGTPRAINNTLSLMKEYFSDEEIKKYTDVIEKFVPDPEHFRKTTDNPFKALGGNLVDMGRVKVIAGLLRKDDQEISSTIRSIEQVFKLVDQGEGFYQDGSYIDHTNVAYTGAYGNVLIDGLSQLLPVIQKTKNPIDKDKMQTMYHWIDKSFAPLLVNGELMDMSRGRSISRANSEGHVAAVEVLRGIHRIADMSEGETKQCLQSLVKTIVQSDSYYDVFKNLKTYKDISLMQSLLSDAGVASVPRPSYLSAFNKMDKTAMYNAEKGFGFGLSLFSSRTLNYEHMNKENKRGWYTSDGMFYLYNGDLSHYSDGYWPTVNPYKMPGTTETDAKRADSDTGKVLPSAFVGTSKLDDANATATMDFTNWNQTLTAHKSWFMLKDKIAFLGSNIQNTSTDTAATTIDQRKLESGNPYKVYVNDKEASLTEQEKDYPETQSVFLESFDSKKNIGYFFFKKSSISMSKALQKGAWKDINEGQSDKEVENEFLTISQAHKQNRDSYGYMLIPNVDRATFNQMIKELESSLIENNETLQSVYDAKQGVWGIVKYDDSVSTISNQFQVLKRGVYTIRKEGDEYKIAYYNPETQESAPDQEVFKKLEQ
notes: Hyaluronate lyase (Hyl) of Streptococcus pneumoniae, PL8 catalytic domain, residues Lys288-Gln1009; The His6 tag is joined by a thrombin cleavage site; Expected mass printed as 82 kDa; also called PL8 domain; isolated PL8 domain; source: recombinant, pET28, autoinduction culture
In the case of B2, the Kd [2] is reported as roughly 180 µM and the “stoichiometry N” value [2] is reported as 2.

— PMC4175358, “Conformational Analysis of the Streptococcus pneumoniae Hyaluronate Lyase and Characterization of Its Hyaluronan-specific Carbohydrate-binding Module*^([image sbox.jpg])” (The Journal of Biological Chemistry, 2014)
